Source: PMC10781750, “Structural basis of antiphage immunity generated by a prokaryotic Argonaute-associated SPARSA system” (Nature Communications, 2024)

Biological target: T1, GsSir2 (Sir2-APAZ protein of the SPARSA system from Geobacter sulfurreducens) (Geobacter sulfurreducens, UniProt Q74DF6 1-586)
T1 construct: GsSir2 of Geobacter sulfurreducens, NP_952413.1; That the His tag sits on GsSir2, the first gene of Sir2-RBS-pAgo, is surmised; source: E. coli BL21(DE3), coexpressed with pAgo, purified (Ni-NTA, Superdex 200 SEC)
T1 sequence: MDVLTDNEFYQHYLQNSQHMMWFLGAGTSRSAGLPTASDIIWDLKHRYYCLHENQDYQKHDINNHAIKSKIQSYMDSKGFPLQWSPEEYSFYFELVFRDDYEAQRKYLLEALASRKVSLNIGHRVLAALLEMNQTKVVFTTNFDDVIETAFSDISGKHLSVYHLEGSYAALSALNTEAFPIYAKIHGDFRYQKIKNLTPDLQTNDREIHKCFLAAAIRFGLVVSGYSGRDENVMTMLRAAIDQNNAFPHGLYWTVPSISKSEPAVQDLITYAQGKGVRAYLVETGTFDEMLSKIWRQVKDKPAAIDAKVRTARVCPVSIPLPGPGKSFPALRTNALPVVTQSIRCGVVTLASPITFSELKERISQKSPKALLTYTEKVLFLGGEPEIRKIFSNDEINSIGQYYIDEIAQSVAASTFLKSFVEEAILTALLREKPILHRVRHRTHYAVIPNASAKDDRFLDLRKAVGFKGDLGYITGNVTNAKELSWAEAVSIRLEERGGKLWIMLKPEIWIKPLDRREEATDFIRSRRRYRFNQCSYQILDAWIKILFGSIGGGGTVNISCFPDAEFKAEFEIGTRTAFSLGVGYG
Test: cryo-EM structure; SPARSA heterodimer (GsSir2 + pAgo) coexpressed and co-purified, endogenous NAD+ bound, no nucleic acids; 2 mg/mL; 3.6 Å
Details: both partners purified

stoichiometry N: 1
B1: pAgo (short prokaryotic Argonaute of the SPARSA system from Geobacter sulfurreducens) (natural protein)
chain: not shown
notes: short pAgo of Geobacter sulfurreducens, NP_952414.1; MID domain residues 1-218, PIWI domain residues 219-473; no tag of its own is described; also called short pAgo; source: E. coli BL21(DE3), coexpressed with GsSir2, purified (Ni-NTA, Superdex 200 SEC)
